Test results as given in article PMC10959496 (European journal of medicinal chemistry, 2023).

Columns and labels:
[1] = mouse, ip
EphA4 [2] = biological target: T1, EphA4 (Homo sapiens, UniProt P54764); assay: ELISA measuring EphA4 activation; type: cell-based; conditions: HEK-EphA4 cells, ratio of IC50 values
EphA4 [3] = biological target: T1, EphA4; conditions: cited from earlier work

T1 sequence (P54764 20-986, species assumed): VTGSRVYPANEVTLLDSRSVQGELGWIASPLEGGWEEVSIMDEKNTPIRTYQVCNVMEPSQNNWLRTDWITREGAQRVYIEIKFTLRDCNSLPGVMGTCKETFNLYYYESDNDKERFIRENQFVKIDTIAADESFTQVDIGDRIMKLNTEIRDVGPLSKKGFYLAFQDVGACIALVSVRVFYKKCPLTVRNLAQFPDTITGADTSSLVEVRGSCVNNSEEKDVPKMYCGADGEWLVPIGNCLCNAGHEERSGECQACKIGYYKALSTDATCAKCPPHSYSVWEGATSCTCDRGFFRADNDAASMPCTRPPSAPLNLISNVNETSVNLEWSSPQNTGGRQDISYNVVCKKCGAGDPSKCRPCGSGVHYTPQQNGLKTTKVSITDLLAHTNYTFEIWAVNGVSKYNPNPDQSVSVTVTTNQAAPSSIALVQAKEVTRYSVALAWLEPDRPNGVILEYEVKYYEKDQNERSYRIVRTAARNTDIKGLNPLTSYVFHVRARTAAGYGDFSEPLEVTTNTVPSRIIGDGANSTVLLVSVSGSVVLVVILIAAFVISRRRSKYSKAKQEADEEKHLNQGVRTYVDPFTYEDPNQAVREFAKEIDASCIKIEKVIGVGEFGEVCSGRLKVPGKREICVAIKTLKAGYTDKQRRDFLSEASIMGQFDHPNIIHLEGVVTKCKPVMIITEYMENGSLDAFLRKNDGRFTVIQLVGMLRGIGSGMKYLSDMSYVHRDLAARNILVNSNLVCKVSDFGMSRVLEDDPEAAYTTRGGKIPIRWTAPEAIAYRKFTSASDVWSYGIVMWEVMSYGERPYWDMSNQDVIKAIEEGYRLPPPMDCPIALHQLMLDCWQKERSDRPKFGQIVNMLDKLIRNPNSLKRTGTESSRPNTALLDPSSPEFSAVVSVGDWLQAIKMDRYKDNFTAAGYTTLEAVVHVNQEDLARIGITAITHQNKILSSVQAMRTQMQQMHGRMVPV

Substance | Blood concentration at 20 hours after injection ([1]; in vivo, 0.8 mg per mouse, 20 h) | Blood concentration at 48 hours after injection ([1]; in vivo, 0.8 mg per mouse, 48 h) | In vivo half-life after intraperitoneal injection [1] | Potency in cells lower than that of APY-d3 (EphA4 [2]) | More potent than APY (EphA4 [3])
APY-d3-PEG4: APY-d3 conjugated to 30 kDa metoxy-PEG-azide through 3 amino-hexanoic acid groups and propargyl-glycine by click chemistry | ~ 3 μM | 400 nM | > 10 h | ~ 4 fold | –
APYCVYRβASWSC-NH2 (disulfide) [APY-d2] | – | – | – | – | 50 fold
